Results taken from publication PMC5150656.

Assays:
[1] = target: CaV1.2 holochannel tagged with EYFP on its carboxy-terminus, co-expressed with β2a and α2δ subunits (UniProt P15381); assay: FRET or BRET; FRET 2-hybrid (3^3-FRET and E-FRET) in single live HEK293 cells, room temperature, basal (resting) Ca2+: Tyrode's bath with 2 mM Ca2+; relative (effective) dissociation constants Kd,EFF; stoichiometry ratio ν = EA,max/ED,max
[2] = target: EYFP tagged myosin Va five tandem IQ domain truncation (IQ2-6) (mouse) (UniProt Q99104); assay: as above
[3] = target: EYFP tagged myosin Va four tandem IQ domain peptide (IQ3-6) (mouse) (UniProt Q99104); assay: as above
[4] = target: EYFP tagged myosin Va peptide containing a single IQ domain (IQ6) (mouse) (UniProt Q99104); assay: as above
[5] = target: EYFP tagged myosin Va three tandem IQ domain peptide (IQ4-6) (mouse) (UniProt Q99104); assay: as above
[6] = target: EYFP tagged myosin Va two tandem IQ domain peptide (IQ5-6) (mouse) (UniProt Q99104); assay: as above
[7] = target: EYFP-tagged full length myosin Va neck domain peptide containing six IQ domains (IQ1-6) (mouse) (UniProt Q99104); assay: as above
[8] = target: NaV1.4 with EYFP fused to its carboxy-terminus (rat) (UniProt P15390); assay: as above
[9] = target: CaV1.2 holochannel tagged with EYFP on its carboxy-terminus, co-expressed with β2a and α2δ subunits (UniProt P15381); assay: FRET or BRET; FRET 2-hybrid (3^3-FRET and E-FRET) in single live HEK293 cells, room temperature, elevated cytosolic Ca2+: Tyrode's bath with 10 mM Ca2+ and 4 μM ionomycin; relative (effective) dissociation constants Kd,EFF; stoichiometry ratio ν = EA,max/ED,max
[10] = target: EYFP-fused myosin Va peptide containing four tandem IQ domains (IQ3-6) (mouse) (UniProt Q99104); assay: FRET or BRET; FRET 2-hybrid in live HEK293 cells co-expressing a CFP-tagged and a YFP-tagged partner; 3^3-FRET (EA) and E-FRET (ED) efficiencies from single cells, room temperature; stoichiometry from the ratio EA,max/ED,max
[11] = target: EYFP-tagged myosin Va peptide containing three tandem IQ domains (IQ4-6) (mouse) (UniProt Q99104); assay: as above
[12] = target: EYFP-tagged myosin Va peptide containing two IQ domains (IQ5-6) (mouse) (UniProt Q99104); assay: as above
[13] = target: YFP-fused myosin Va peptide containing five tandem IQ motifs (IQ2-6) (mouse) (UniProt Q99104); assay: as above
[14] = target: ECFP fused myosin Va peptide containing five tandem IQ domains (IQ2-6) (mouse) (UniProt Q99104); assay: as above
[15] = target: ECFP fused myosin Va peptide containing three tandem IQ domains (IQ4-6) (mouse) (UniProt Q99104); assay: as above
[16] = target: ECFP tagged myosin Va peptide containing a single IQ domain (IQ6) (mouse) (UniProt Q99104); assay: as above

CaV1.2 holochannel tagged with EYFP on its carboxy-terminus, co-expressed with β2a and α2δ subunits, sequence (P15381 whole entry, stated change not applied, chain 1 of 3, other chains not shown, the tested form may be a part): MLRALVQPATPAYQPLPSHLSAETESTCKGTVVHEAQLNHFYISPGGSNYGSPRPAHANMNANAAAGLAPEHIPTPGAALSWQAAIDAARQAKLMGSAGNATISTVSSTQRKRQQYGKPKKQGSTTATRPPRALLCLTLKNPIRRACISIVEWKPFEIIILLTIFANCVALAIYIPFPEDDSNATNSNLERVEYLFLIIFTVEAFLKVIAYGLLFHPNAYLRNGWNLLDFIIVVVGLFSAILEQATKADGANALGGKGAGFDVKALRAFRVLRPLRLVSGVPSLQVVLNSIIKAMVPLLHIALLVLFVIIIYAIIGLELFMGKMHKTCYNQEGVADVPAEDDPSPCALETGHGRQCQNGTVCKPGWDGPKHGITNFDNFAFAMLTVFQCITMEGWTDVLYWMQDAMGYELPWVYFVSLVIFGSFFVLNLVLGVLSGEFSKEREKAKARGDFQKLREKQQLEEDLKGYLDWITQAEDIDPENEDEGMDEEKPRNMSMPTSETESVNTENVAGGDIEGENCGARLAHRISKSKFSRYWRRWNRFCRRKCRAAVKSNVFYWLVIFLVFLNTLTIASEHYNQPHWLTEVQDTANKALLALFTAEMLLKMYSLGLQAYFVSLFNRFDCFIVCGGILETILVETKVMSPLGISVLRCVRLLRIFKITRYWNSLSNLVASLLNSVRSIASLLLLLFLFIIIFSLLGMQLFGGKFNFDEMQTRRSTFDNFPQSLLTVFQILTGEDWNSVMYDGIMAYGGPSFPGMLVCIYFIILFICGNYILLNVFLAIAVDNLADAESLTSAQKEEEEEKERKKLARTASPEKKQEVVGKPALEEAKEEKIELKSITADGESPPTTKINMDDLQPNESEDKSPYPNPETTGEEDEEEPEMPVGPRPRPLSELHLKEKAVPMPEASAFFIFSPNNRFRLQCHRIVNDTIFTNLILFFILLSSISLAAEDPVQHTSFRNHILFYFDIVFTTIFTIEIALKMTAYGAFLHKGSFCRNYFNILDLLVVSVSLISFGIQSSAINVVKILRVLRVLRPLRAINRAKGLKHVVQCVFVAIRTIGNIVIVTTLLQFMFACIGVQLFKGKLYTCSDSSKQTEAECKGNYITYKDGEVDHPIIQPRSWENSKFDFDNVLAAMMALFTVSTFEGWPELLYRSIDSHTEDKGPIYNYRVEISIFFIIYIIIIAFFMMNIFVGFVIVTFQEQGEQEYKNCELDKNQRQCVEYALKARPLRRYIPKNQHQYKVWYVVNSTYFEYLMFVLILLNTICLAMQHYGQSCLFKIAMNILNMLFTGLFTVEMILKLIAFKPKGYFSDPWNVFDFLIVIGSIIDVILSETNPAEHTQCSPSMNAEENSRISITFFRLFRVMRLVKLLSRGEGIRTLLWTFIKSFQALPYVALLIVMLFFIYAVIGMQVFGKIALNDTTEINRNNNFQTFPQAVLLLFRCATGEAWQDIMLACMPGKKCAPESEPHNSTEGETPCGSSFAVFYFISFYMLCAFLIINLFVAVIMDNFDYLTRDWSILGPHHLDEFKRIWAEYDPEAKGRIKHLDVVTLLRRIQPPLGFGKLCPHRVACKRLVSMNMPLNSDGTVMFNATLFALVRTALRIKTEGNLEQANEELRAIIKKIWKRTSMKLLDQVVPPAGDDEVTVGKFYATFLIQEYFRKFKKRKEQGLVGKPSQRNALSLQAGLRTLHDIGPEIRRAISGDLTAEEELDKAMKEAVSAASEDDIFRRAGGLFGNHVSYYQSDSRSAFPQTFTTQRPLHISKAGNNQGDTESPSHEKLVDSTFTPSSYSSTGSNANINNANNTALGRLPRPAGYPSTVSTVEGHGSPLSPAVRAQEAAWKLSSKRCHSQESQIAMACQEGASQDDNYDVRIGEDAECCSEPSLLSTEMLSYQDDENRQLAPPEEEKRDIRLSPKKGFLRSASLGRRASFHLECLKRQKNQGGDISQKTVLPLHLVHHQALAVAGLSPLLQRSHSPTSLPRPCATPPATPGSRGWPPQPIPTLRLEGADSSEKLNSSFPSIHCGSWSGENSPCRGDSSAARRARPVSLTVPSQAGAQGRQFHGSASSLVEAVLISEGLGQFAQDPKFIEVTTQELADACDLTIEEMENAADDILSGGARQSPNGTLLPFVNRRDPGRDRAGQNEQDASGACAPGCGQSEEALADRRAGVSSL
CaV1.2 holochannel tagged with EYFP on its carboxy-terminus, co-expressed with β2a and α2δ subunits, sequence (P54290 25-1091, stated change not applied, chain 3 of 3, other chains not shown, further chain): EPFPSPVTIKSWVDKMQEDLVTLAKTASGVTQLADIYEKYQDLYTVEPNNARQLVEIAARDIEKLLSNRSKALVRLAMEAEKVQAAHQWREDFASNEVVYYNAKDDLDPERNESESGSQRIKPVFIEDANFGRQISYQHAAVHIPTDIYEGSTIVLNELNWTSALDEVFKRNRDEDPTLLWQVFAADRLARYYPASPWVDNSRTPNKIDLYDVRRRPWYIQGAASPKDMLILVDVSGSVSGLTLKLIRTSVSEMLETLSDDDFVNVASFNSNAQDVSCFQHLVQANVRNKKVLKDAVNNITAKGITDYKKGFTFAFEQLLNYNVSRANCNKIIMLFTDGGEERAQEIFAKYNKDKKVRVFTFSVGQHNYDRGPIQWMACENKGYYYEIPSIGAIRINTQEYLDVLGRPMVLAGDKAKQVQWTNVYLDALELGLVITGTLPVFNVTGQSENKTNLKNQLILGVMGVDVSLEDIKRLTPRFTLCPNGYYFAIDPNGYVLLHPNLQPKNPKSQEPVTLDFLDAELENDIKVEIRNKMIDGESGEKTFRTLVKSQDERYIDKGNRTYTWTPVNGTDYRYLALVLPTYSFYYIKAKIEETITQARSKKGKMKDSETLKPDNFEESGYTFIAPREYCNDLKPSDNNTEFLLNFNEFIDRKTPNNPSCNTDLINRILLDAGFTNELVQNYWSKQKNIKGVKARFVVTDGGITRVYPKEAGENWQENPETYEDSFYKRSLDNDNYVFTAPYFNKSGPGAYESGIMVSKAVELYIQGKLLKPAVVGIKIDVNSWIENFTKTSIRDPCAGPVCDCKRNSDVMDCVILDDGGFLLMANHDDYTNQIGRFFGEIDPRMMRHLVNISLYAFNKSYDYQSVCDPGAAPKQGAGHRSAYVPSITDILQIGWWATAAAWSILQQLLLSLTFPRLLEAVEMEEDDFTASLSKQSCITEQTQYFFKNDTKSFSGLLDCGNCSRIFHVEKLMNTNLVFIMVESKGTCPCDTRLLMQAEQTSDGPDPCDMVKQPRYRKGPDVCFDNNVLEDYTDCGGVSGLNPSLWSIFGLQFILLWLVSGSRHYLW
NaV1.4 with EYFP fused to its carboxy-terminus (rat), sequence (P15390 whole entry, the tested form may be a part): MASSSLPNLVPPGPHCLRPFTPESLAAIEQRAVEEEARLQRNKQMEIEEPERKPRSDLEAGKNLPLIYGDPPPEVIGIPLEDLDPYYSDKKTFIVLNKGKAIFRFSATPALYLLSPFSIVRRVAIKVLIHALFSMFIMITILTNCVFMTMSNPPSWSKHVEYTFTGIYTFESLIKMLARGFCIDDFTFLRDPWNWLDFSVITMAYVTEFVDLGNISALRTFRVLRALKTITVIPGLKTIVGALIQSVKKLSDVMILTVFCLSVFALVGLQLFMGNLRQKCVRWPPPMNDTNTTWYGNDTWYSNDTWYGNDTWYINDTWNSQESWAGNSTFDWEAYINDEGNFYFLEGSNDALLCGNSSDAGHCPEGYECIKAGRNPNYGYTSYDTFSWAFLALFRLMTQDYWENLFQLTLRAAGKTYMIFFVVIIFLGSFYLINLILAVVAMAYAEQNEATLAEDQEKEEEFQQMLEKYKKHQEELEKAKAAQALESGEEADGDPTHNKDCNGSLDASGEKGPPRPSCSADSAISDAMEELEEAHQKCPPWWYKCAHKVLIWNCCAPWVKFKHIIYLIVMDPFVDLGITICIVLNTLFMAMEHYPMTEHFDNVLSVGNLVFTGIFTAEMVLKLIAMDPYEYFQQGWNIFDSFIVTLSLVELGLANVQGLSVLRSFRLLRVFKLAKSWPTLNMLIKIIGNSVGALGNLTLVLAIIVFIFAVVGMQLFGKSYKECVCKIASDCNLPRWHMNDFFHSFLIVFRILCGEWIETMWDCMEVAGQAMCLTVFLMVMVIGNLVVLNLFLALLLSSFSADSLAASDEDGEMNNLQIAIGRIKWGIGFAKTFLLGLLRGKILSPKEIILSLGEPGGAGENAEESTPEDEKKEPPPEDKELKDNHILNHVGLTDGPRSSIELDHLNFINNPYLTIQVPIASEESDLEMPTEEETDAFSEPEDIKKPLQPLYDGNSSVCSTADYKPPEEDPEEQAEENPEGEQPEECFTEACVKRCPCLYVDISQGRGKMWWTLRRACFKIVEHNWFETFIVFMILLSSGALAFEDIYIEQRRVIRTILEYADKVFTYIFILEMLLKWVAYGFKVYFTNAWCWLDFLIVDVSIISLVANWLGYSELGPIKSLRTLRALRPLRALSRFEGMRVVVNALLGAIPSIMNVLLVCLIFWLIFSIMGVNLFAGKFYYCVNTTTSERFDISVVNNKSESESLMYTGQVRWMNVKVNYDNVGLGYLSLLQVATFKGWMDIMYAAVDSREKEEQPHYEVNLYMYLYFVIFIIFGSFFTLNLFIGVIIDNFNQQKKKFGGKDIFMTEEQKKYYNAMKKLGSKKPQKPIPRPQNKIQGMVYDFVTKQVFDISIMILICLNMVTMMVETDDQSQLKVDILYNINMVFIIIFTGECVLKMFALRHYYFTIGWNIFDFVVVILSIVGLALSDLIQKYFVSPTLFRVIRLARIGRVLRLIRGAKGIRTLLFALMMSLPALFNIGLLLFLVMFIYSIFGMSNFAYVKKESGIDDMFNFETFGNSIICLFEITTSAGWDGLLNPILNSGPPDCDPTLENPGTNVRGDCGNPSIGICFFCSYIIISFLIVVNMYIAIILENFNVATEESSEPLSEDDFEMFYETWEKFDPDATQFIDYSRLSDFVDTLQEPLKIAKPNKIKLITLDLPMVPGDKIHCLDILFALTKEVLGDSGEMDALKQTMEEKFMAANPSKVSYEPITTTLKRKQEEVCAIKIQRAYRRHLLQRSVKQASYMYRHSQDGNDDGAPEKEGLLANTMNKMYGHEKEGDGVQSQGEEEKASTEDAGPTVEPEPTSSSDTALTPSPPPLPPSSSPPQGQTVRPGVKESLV
EYFP tagged myosin Va two tandem IQ domain peptide (IQ5-6) (mouse), sequence (Q99104 862-920): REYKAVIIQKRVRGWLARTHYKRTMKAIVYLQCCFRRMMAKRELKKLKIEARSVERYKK

Substance: ECFP-tagged calmodulin (CaM) (from UniProt P0DP23 1-149) (natural protein)
- Kd [1]: 115 nM
- stoichiometry N (CaM per channel (donors per acceptor)) [1]: 1.1
- stoichiometry N (CaM per peptide (donors per acceptor)) [2]: 5
- stoichiometry N (CaM per peptide (donors per acceptor)) [3]: 4
- stoichiometry N (CaM per peptide (donors per acceptor)) [4]: 0.97
- stoichiometry N (CaM per peptide (donors per acceptor)) [5]: 3
- stoichiometry N (CaM per peptide (donors per acceptor)) [6]: 2
- stoichiometry N (CaM per peptide (donors per acceptor)) [7]: 5.91
- stoichiometry N (CaM per channel (donors per acceptor)) [8]: 1.14
- stoichiometry N (CaM per channel (donors per acceptor)) [9]: 1.94

Substance: ECFP-tagged calmodulin (from UniProt P0DP23 1-149) (natural protein)
- stoichiometry N [10]: 4
- stoichiometry N [11]: 3
- stoichiometry N [12]: 2
- stoichiometry N [13]: 5

Substance: EYFP-tagged calmodulin (from UniProt P0DP23 1-149) (natural protein)
- stoichiometry N [14]: 5
- stoichiometry N [15]: 3
- stoichiometry N [16]: 1
